Experimental findings from article PMC4522605, “Evolution of plant δ^1-pyrroline-5-carboxylate reductases from phylogenetic and structural perspectives” (Frontiers in Plant Science, 2015) are described below.

Data set [1] deals with Bacillus cereus P5CR (Bc_2977), full-length (Bacillus cereus). As to the kind of experiment: SEC; HiLoad 16/600 Superdex 200 Prep Grade; 1.5 mL of purified protein at ~5 mg/mL; run in lysis buffer (50 mM HEPES pH 8.0, 500 mM NaCl, 5% glycerol, 20 mM imidazole, 10 mM β-mercaptoethanol); calibrated with chymotrypsinogen A, albumin, SpP5CR decamer (275 kDa) and thyroglobulin. On the technique in general: Size exclusion chromatography separates by hydrodynamic size, large species first.

Data set [2] deals with the molecule itself. Described as above.

Regarding “Bacillus cereus P5CR (Bc_2977), full-length (enzyme)”, the stoichiometry N (usually a count of units in the complex or per binding partner) in data set [1] was found to be 10.

B1: Arabidopsis thaliana P5CR (δ1-pyrroline-5-carboxylate reductase) (enzyme, UniProt P54904 1-276, looked up)
chain: MEILPIPAESFKVGFIGAGKMAESIARGVVASGVLPPNRICTAVHSNLNRRDVFESFGVNVFSTSEEVVKESDVVIFSVKPQVVKKAVTELKSKLSKNKILVSVAAGIKLNDLQEWSGQDRFIRVMPNTPAAVGEAASVMSLGTGATEEDGAIVAMLFGAVGKILKADEKMFDAVTGLSGSGPAYIFLAIEALADGGVAAGLPRELALSLASQTVLGAATMVSKTGKHPGVLKDDVTSPGGTTIAGVHELEKGSFRATLMNAVVAAAKRSRELSQS
notes: Pyrroline-5-carboxylate reductase of Arabidopsis thaliana; coding gene cloned into pMCSG68 (construct as in Giberti et al., 2014); also called AtP5CR; P5C reductase; source: E. coli BL21 Gold, purified (HisTrap HP, TEV cleavage, second HisTrap HP pass); not shown: His6, N-terminal, cleaved; copies: 10
With B1, the “stoichiometry N” value in data set [2] was 10.
